Values quoted from earlier work in publication PMC10876879, “Sustained silencing peanut allergy by xanthopurpurin is associated with suppression of peripheral and bone marrow IgE-producing B cell” (Frontiers in Immunology, 2024).

System: IgE
Design: method as in PMID 15025403, PMID 12637608
Details: double-blind, randomized trial, 2003

B1: TNX-901: anti-IgE antibody (antibody, chains of the INN, looked up, V domains shown)
VH: QVQLVQSGAEVKKPGASVKVSCKASGYTFSMYWLEWVRQAPGHGLEWVGEISPGTFTTNYNEKFKARATFTADTSTNTAYMELSSLRSEDTAVYYCARFSHFSGSNYDYFDYWGQGTLVTVSS
VL: DILLTQSPGTLSLSPGERATLSCRASQSIGTNIHWYQQKPGQAPRLLIKYASESISGIPSRFSGSGSGTDFTLTISRLEPEDFAMYYCQQSDSWPTTFGQGTKVEIK
- Threshold of the sensitivity of patients to peanut: significantly increased
